Reference: PMC9512048, “Characterization of a xylitol dehydrogenase from Aspergillus flavus and its application in L-xylulose production” (Frontiers in Bioengineering and Biotechnology, 2022)

B1: AfXDH (Aspergillus flavus NRRL3357) (protein)
chain: MATDTHPTINKASVLRPGGSFYYEDREKPSLESDRDVIVRVVATGLCGSDVHYWQHGRIGRYVVENPIVLGHESSGIVVSRGAKASGIEVGDRVAIEPGIACNTCNPCRSGRYNLCKDMRFAATPPYDGTLSTYYRVPVECCYKLPEHISLRDGALVEPLGVAVHGCRLAGDLQDKSVIVFGAGPVGLLCCAVASAFGASTVVAVDIVAARLESARKYGATHTYQMSAEKSPALNADALAATAGLMDGADVVLDASGAEPCINCGIHALAHGGTFVQVGLGRPNLSLPVGQICDKEAVFKGSFRYGPGDFKLAVGLLNSRRVRVDGLVTHEFSFSQVEEAFKHVAGKGGIKSVIYGPDVDVEAAKQASV
notes: full length, 369 residues, 38,893 Da; 6xHis tag (printed as C-terminal, vector pQE80L); E. coli BL21 (DE3); monomer, 2 Zn per monomer

Columns and labels:
[1] = target: T1, AfXDH (Aspergillus flavus, UniProt A0A7U2N396); assay: product inhibition of xylitol oxidation; assay type: biochemical; conditions: read-out: K i, NADH
T1 construct: gene F9C07_11531; full length, 369 residues, 38,893 Da; 6xHis tag (printed as C-terminal, vector pQE80L); E. coli BL21 (DE3); monomer, 2 Zn per monomer
T1 sequence (A0A7U2N396 1-369): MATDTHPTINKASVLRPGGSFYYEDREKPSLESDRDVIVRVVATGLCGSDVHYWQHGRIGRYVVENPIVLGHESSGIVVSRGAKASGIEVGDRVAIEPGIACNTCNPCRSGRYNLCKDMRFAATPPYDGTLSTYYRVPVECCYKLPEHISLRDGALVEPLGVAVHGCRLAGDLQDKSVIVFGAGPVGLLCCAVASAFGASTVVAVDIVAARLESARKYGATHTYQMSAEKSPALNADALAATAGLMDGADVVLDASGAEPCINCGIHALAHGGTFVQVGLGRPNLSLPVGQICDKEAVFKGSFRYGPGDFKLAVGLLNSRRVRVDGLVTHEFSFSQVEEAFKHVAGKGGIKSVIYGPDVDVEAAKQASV

[2] = substrate: OC[C@@H](O)[C@@H](O)[C@H](O)[C@@H](O)CO; assay: NADH formation at A340; assay type: biochemical, Aspergillus flavus; conditions: NAD+, pH 9.5, only in abstract, b45 prints 16.2 mM for xylitol, so order in abstract may be uncertain
[3] = substrate: OC[C@@H](O)[C@H](O)[C@@H](O)CO; assay: NADH formation at A340, Michaelis-Menten fit; assay type: biochemical, Aspergillus flavus; conditions: NAD+, 20 mM Tris-glycine pH 9.5, 0.1 mM Zn2+, 16.9 in abstract and Table 2, but b45 prints 16.2 mM
Text: (§1) NADH formation at A340, Michaelis-Menten fit on AfXDH

[4] = substrate: NC(=O)c1ccc[n+]([C@@H]2O[C@H](COP(=O)(O)OP(=O)(O)OC[C@H]3O[C@@H](n4cnc5c(N)ncnc54)[C@H](O)[C@@H]3O)[C@@H](O)[C@H]2O)c1; assay: NADH formation at A340, Michaelis-Menten fit; assay type: biochemical, Aspergillus flavus; conditions: xylitol, 20 mM Tris-glycine pH 9.5, 0.1 mM Zn2+, 0.1-3 mM NAD+, b45 prints 0.15 mM, varied: cofactor
Text: as §1

Row | Molecule | Ki [1] [µM] | Km [2] [mM] | Km [3] [mM] | kcat [3] [s⁻¹] | kcat/Km [3] [M⁻¹ s⁻¹] | Km [4] [mM]
1 | NC(=O)C1=CN([C@@H]2O[C@H](COP(=O)(O)OP(=O)(O)OC[C@H]3O[C@@H](n4cnc5c(N)ncnc54)[C@H](O)[C@@H]3O)[C@@H](O)[C@H]2O)C=CC1 [NADH] | 250 |  |  |  |  | 
2 | B1 |  | 16.2 | 16.9 | 48.67 | 2880 | 0.17
